According to doi:10.1101/2020.12.08.415968 (bioRxiv, 2020):

Molecular target: T1, SiRHP (sulfite reductase hemoprotein, full length, hydrogenated) (Escherichia coli, UniProt P17846 1-570)
T1 sequence (looked up): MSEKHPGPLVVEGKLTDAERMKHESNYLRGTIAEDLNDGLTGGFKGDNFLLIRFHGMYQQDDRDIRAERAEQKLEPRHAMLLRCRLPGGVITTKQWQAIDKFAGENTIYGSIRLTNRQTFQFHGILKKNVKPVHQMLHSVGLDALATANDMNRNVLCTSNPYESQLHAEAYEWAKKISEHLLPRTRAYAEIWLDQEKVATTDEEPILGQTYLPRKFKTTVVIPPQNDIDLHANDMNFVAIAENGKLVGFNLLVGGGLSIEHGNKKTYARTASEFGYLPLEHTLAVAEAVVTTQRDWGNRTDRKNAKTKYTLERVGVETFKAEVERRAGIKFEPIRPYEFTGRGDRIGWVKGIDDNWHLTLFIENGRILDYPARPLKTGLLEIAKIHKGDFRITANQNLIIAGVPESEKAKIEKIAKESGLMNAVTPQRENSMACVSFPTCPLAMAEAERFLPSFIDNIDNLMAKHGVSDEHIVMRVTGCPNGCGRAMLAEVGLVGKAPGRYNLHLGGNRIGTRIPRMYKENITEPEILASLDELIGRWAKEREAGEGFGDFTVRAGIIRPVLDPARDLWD
Test: AUC

B1: SiRFP-60 (monomeric 60 kDa sulfite reductase flavoprotein, 52 N-terminal amino acids removed) (domain or fragment, Escherichia coli, UniProt P38038 53-599, looked up)
chain: ATPAPAAEMPGITIISASQTGNARRVAEALRDDLLAAKLNVKLVNAGDYKFKQIASEKLLIVVTSTQGEGEPPEEAVALHKFLFSKKAPKLENTAFAVFSLGDSSYEFFCQSGKDFDSKLAELGGERLLDRVDADVEYQAAASEWRARVVDALKSRAPVAAPSQSVATGAVNEIHTSPYSKDAPLVASLSVNQKITGRNSEKDVRHIEIDLGDSGMRYQPGDALGVWYQNDPALVKELVELLWLKGDEPVTVEGKTLPLNEALQWHFELTVNTANIVENYATLTRSETLLPLVGDKAKLQHYAATTPIVDMVRFSPAQLDAEALINLLRPLTPRLYSIASSQAEVENEVHVTVGVVRYDVEGRARAGGASSFLADRVEEEGEVRVFIEHNDNFRLPANPETPVIMIGPGTGIAPFRAFMQQRAADEAPGKNWLFFGNPHFTEDFLYQVEWQRYVKDGVLTRIDLAWSRDQKEKVYVQDKLREQGAELWRWINDGAHIYVCGDANRMAKDVEQALLEVIAEFGGMDTEAADEFLSELRVERRYQRDVY
- binding result: binds
